Test results published in US20230287120A1 (ALLOGENE THERAPEUTICS, published 2023).

T1: Flag tagged recombinant DLL3 (Adipogen) (Homo sapiens (Human), UniProt Q9NYJ7 27-492)
T1 construct: Bought reagent; also called Flag-DLL3
T1 sequence: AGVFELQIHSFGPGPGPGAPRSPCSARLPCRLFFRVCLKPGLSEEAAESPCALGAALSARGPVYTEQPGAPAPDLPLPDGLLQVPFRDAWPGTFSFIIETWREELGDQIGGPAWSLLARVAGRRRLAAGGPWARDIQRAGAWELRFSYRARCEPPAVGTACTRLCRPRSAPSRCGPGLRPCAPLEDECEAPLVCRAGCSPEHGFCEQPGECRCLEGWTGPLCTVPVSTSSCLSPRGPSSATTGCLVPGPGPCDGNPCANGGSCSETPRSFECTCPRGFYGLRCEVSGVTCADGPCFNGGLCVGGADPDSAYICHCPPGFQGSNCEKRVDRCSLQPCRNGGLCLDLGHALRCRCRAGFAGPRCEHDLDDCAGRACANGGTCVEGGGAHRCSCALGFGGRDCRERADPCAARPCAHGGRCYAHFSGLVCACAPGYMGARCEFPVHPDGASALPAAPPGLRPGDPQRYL

T2: cynomolgus monkey DLL3 extracellular domain (ECD) with C-terminal 8xHis tag and Avi tag (cynomolgus monkey, UniProt A0A2K5WSR1 27-490)
T2 construct: extracellular domain; Expressed in Expi293, purified by IMAC and SEC; also called cynoDLL3; cyno DLL3; not shown: Avi tag
T2 sequence: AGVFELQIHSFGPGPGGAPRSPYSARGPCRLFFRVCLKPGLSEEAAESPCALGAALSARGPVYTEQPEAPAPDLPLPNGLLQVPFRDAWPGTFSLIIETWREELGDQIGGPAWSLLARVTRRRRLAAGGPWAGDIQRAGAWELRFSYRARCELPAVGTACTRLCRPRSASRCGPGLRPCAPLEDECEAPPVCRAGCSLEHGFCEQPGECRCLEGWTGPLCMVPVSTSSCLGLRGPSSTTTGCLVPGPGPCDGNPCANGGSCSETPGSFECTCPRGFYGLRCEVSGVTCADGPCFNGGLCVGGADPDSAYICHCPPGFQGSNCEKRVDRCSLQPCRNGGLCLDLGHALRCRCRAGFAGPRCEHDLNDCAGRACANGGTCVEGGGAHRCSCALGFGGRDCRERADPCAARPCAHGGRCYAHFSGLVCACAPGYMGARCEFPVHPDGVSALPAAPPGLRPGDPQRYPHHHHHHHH

T3: mouse DLL3 extracellular domain (ECD) with C-terminal 8xHis tag and Avi tag (mouse, UniProt O88516 33-490)
T3 construct: extracellular domain; Expressed in Expi293, purified by IMAC and SEC; also called msDLL3; not shown: Avi tag
T3 sequence: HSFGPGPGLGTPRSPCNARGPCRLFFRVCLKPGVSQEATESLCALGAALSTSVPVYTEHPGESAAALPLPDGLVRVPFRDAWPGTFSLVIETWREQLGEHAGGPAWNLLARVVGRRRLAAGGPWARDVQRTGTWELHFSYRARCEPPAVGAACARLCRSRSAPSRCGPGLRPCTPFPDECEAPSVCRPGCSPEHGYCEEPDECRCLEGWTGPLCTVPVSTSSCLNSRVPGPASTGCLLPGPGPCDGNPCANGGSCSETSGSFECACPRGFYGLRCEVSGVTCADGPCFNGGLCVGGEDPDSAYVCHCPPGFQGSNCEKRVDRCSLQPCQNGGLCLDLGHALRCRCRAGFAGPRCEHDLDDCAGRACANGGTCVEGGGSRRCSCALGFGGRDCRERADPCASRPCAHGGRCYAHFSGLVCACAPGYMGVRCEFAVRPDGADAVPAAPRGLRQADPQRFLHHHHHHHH

T4: human DLL3 extracellular domain (ECD) with C-terminal 8xHis tag and Avi tag (human, UniProt Q9NYJ7 27-492)
T4 construct: extracellular domain; Expressed in Expi293, purified by IMAC and SEC; also called huDLL3; not shown: Avi tag
T4 sequence: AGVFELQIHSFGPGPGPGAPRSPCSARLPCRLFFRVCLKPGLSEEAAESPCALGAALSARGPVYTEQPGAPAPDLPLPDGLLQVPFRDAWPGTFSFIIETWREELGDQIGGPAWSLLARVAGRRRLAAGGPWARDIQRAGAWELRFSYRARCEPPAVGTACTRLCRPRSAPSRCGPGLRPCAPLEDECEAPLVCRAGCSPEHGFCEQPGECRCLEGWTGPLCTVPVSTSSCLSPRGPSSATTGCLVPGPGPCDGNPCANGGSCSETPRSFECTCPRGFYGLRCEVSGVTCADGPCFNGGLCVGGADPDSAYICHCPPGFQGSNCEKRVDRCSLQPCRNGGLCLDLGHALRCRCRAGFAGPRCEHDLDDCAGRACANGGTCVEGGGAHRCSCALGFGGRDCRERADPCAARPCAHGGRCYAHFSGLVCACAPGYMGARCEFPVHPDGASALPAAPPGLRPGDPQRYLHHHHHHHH


Legend:
[1] = molecular target: T1, Flag tagged recombinant DLL3 (Adipogen); assay: flow cytometry, percent of T cells that recognise recombinant DLL3, Donor 503
Experimental: (§1) To determine the percentage of T cells that were successfully transduced with DLL3 CAR, T cells were first incubated with 1 ug/ml Flag tagged recombinant DLL3 (Adipogen) in PBS+1% BSA for 20 minutes at 4 C.

[2] = molecular target: T1, Flag tagged recombinant DLL3 (Adipogen); assay: flow cytometry, percent of T cells that recognise recombinant DLL3, Donor 419
Experimental: as §1

[3] = molecular target: T2, cynomolgus monkey DLL3 extracellular …; assay: SPR (Biacore), 37 C; scFv-Fc captured on chip, cyno DLL3 ECD in solution; 1:1 Langmuir fit
Experimental: (§2) The antibody binding kinetics were determined by surface plasmon resonance (Biacore™ surface plasmon resonance (SPR) system, GE Healthcare Bio-Sciences, Pittsburgh Pa.). The antibodies diluted in HBS-T+ running buffer (0.01 M HEPES pH 7.4, 0.15 M NaCl, 0.05% v/v Tween20, 1 mg/mL BSA) were captured on a CM4 chip immobilized with an antibody specific for the anti-DLL3 antibody constant domains. Purified DLL3 was serially diluted into HBS-T+, injected for 2 min at 30 uL/min and a dissociation time of 10 min then the surface regenerated with either 10 mM Glycine-HCl pH 1.7 or phosphoric acid between injections. […] Equilibrium dissociation constant (Kd) values are calculated as koff/kₒₙ.

[4] = molecular target: T3, mouse DLL3 extracellular domain (ECD) …; assay: SPR (Biacore), 37 C; scFv-Fc captured on chip, mouse DLL3 ECD in solution; 1:1 Langmuir fit
Experimental: as §2

[5] = molecular target: T4, human DLL3 extracellular domain (ECD) …; assay: SPR (Biacore), 37 C; scFv-Fc captured on chip, human DLL3 ECD in solution; 1:1 Langmuir fit
Experimental: as §2

Binder | Transduction efficiency [1] [%] | Transduction efficiency [2] [%] | Kd [3] [nM] | Kd [4] [nM] | Kd [5] [nM]
10A2 (other, also called anti-DLL3 CAR with 10A2 scFv, on primary T cells) CAR: QVQLQQSGPGLVKPSETLSLTCAISGDSVSSNSATWNWIRQSPSRGLEWLGRTYYRSEWYNDYAVSVKSRITINPDTSKNHLSLHLNSVTPEDTAVYYCAGGGIVGAPDGFDVWGQGTMVTVSSGGGGSGGGGSGGGGSGGGGSQSVLTQPPSASGTPGQRVTISCSGSSSNIGSDPVIWYQQLPRTAPKLLIYSNNQRPSGVPDRFSGSKSGTSASLAISGLQSEDEADYYCAAWDDSLNGYVFGTGTKVTVLTTTPAPRPPTPAPTIASQPLSLRPEACRPAAGGAVHTRGLDFACDIYIWAPLAGTCGVLLLSLVITKRGRKKLLYIFKQPFMRPVQTTQEEDGCSCRFPEEEEGGCELRVKFSRSADAPAYQQGQNQLYNELNLGRREEYDVLDKRRGRDPEMGGKPRRKNPQEGLYNELQKDKMAEAYSEIGMKGERRRGKGHDGLYQGLSTATKDTYDALHMQALPPR | 67.6 | 58.5 |  |  | 
2A6.C5 scFv-Fc fusion (Fc fusion, not shown: a dimerising Fc or GST, scFv-Fc expressed in Expi293) scFv: QVQLQESGPGLVKPSETLSLTCTVSNVSISSYYWSWIRQPPGKGLEWIGYIYYSGTTNYNPSLKSRVTMSVDTSKNQFSLKLSSVTAADTAVYFCARLSNWGFAFDIWGQGTMVTFSSGGGGSGGGGSGGGGSGGGGSEIVLTQSPGTLSLSPGERATLSCRASQTISSSYLAWYQQKPGQAPRLLIYGASSRATGIPDRFSGSGSGTEFTLTISRLEPEDFAVYYCQQYGWSPITFGQGTRLEIK |  |  | 46.8 | 42.1 | 48.4
8E11 scFv-Fc fusion (Fc fusion, not shown: a dimerising Fc or GST, scFv-Fc expressed in Expi293) scFv: QVQLQESGPGLVKPSETLSLTCTVSGDSISNYYWTWIRQPPGKGLEWIGYIYYSGTTNSNPSLKSRVTVSLDTSKSQFSLNLSSVTAADTAVYYCARVFNRGFAFDIWGQGTMVTVSSGGGGSGGGGSGGGGSGGGGSEIVLTQSPGTLSLSPGERATLSCRASQRISNTYLAWYQQKPGQAPRLLIYGASSRATGIPDRFSGSGSGTDFTLTISRLEPEDFAAYYCQQYDTSPLTFGGGTKVEIK |  |  | 10.5 | 7.03 | 11.2
9D3 scFv-Fc fusion (Fc fusion, not shown: a dimerising Fc or GST, scFv-Fc expressed in Expi293) scFv: QVQLQESGPGLVKPSETLSLTCTVSDDSISNYYWSWIRQPPGKGLEWIGYIFYSGTTNHNPSLKSRLTISLDKAKNQFSLRLSSVTAADTAVYYCARVFNWGFAFDIWGQGTMVTVSSGGGGSGGGGSGGGGSGGGGSEIVLTQSPGTLSLSPGERATLSCRASQRISRTYLAWYQQKPGQAPRLLIYGASSRATGIPDRFTGSGSGTDFTLTISRLEPEDFAVYYCQQYGTSPLTFGGGTKVEIN |  |  | 21.8 | 7.19 | 23.3
2G1 scFv-Fc fusion (Fc fusion, not shown: a dimerising Fc or GST, scFv-Fc expressed in Expi293) scFv: QLQLQESGPGLVKPSETLSLTCTVSGGSISSSSYYWGWIRQPPGKGLEWIGSIYYSGNIYHNPSLKSRVSISVDTSKNQFSLRLSSVTAADTAVYYCAREIIVGATHFDYWGQGTLVTVSSGGGGSGGGGSGGGGSGGGGSAIQMTQSPSSLSASVGDRVTITCRASQGIRNDLGWYQQKPGKAPELLIYAASSLQSGVPSRFSGSGSGTDFTLTISSLQPEDFATYYCLQDYNYPLTFGPGTKVDIK |  |  | 20.5 | 2.61 | 17.2
3F2 scFv-Fc fusion (Fc fusion, not shown: a dimerising Fc or GST, scFv-Fc expressed in Expi293) scFv: QVQLQESGPGLVKPSGTLSLTCAVSGGSISSNNWWSWVRQPPGKGLEWIGDIHHSGSTNYKPSLKSRVTISVDKSKNQFSLNLISVTAADTAVYYCAREAGGYFDYWGQGILVTVSSGGGGSGGGGSGGGGSGGGGSDIQMTQSPSTLSASVGDRVTITCRASQSISSWLAWYQQKPGKAPKLLISKASSLESGVPSRFSGSGSGPEFTLTISSLQPADFATYYCQQYNSYSTFGQGTKLEIK |  |  | 6.81 |  | 8.18
17A2 scFv-Fc fusion (Fc fusion, not shown: a dimerising Fc or GST, scFv-Fc expressed in Expi293) scFv: QVQLQESGPGLVKPSGTLSLTCVVFGDSISSSNWWSWVRQPPGKGLEWIGEVFHSGSTNYNPSLKSRVTISVDKSKNQFSLKLSSVTAADTAVYYCARAAVAGALDYWGQGTLVTVSSGGGGSGGGGSGGGGSGGGGSDIVMTQSPDSLAVSLGERATINCKSSQSVLYSSNNKNYLAWYQQKPGQPPNLLVYWASTRESGVPDRFSGAGSGTDFTLTISSLQAEDVAVYYCQQYYGTSWTFGQGTKVEIK |  |  | < 0.97 |  | 3.82
26C8 scFv-Fc fusion (Fc fusion, not shown: a dimerising Fc or GST, scFv-Fc expressed in Expi293) scFv: QVQLQESGPGLVKPSETLSLTCTVSDNSISNYYWSWIRQPPGKGLEWIAYIYYSGTTNYNPSLKSRVTISLDTSKNQFSLQLSSVTAADAAVYYCARVFHWGFAFDIWGQGTMVTVSSGGGGSGGGGSGGGGSGGGGSEIVLTQSPGTLSLSPGERATLSCRASQRVSNTYLAWYQQNPGQAPRLLIYGASSRATGIPDRFSGSGSGTDFTLTISRLEPEDFAVYYCQQYGTSPLTFGGGTKVEIK |  |  | 4.51 | 3.05 | 5.53
4H8 scFv-Fc fusion (Fc fusion, not shown: a dimerising Fc or GST, scFv-Fc expressed in Expi293) scFv: QVQLQQSGPGLVKPSQTLSLTCAISGDSVSSNSATWNWIRQSPSRGLEWLGRTYYRSKWYDDYAVSVKSRITINPDTSKNHLSLHLNSVTPEDTAVYYCAGGGLVGAPDGFDVWGQGTMVTVSSGGGGSGGGGSGGGGSGGGGSQSVLTQPPSASGTPGQRVTISCSGSSSNIGSDPVNWYQQLPGTAPKLLIYSNNQRPSGVPDRFSGSKSGTSASLAISGLQSEDEADYYCSAWDDSLNGYVFGTGTKVTVL |  |  | 27 | 18.6 | 23.3
10G1-K scFv-Fc fusion (Fc fusion, not shown: a dimerising Fc or GST, scFv-Fc expressed in Expi293) scFv: EVQLLESGGGLVQPGGSLRLSCAASGFTFSSYAMNWVRQAPGKGLEWVSTISGSGGSTYYADSVKGRFTISRDNSKNTLYLQMNSLRAEDTAVFYCAIDPEYYDILTGGDYWGQGTLVTVSSGGGGSGGGGSGGGGSGGGGSDIQMTQSPSAMSASVGDRVTITCRASQGISNYLAWFQQKPGKVPKRLIYAASSLQSGVPSRFSGSGSGTEFTLTISSLQPEDFATYFCLQHDSFPLTFGGGTKVEIK |  |  | 28.8 | 27.7 | 26.3
